Source: the DeepSol protein solubility set

assay: soluble on expression in E. coli; label from the status in PepcDB or PDB records

| Sequence | soluble on expression in E. coli |
| --- | --- |
| MIKKWLSVALISTAAMMPHTTFASDTLLQKAQQENRQQQTHNASRESGFKKTEQELQAIKNKLVAERAALQAEADTLSVTFSENEAELAQLEEKLRLETGSLGELFGVVRQNAKELESELKHAVTGVDANSYQKDIEAIVAAKSLPTLKQLQAMWRSMEEQVTASGELAKVSFTLLDGEGKEQTVNGVRLGAMALLDDNGYVKWNGQRGDAVNYLRQPENGPTASAFTNGELDSLVIDPSRGILLEQLANSPTLKDRLNAGGVVGQ | not soluble |
| MAHHHHHHMKQLLSPKTARHSRLFRLANRLAGQKGAPESDGERLSWVNSHVKRTQDMELSREEEALRERIMPLEVGDNAVVSNSQATHGNLFHFREYPMYPGEYVPAGHNTLSSLRDELRSDLTAQSLKEAWMRVSGGMYFKSIDDYYASVDGLDQEQLGEIVSALLPDLRKYEAQALVTKVLESLSKPADSPSRQLSRTITADAVGLDNAPGHYTNFLEWMGRMTETKAFKTEHALFEFSRRKFNREDVRVMFENYNLMSKATLEADSTDSYSHFYTVLHDFSRKVAGEDTRHQIGVRIDPAEVDPETGIAVGHGRADGQKYMFTALIRENRDHNGSVTLLGKPLSVAFDDKSWLMEMVLMPFDEAKLDFRDFDVNLISEGKAMPSFANEIAAFACRMAVANAITKLLPLARIPLKKAGLLSVDRRREPGQFPGFVDGKKNKRKFAKR | not soluble |
| MGSDKIHHHHHHMLHKNDYRLGIDVGGTNTDAAILDADLRCIATAKFPTSMDIYSGIERVIAAVLAQSGIEPQHICYAMLGTTQCTNAIVERKGLDRVGLLRLSLPSSDSVPPLFGWDDEWQKTLGEHFYQLHGGYEFDGREIHPVLLNEVLAVCDTMRGHVDSVAICGVFSPVNNDQELQVAQWVNAALPDVSLSLSHRIGSTGLLERENATILNASLQSTANRFVNGFIQALVRHGIKATPFFGQNDGTLMSESMVKQYPILTMACGPTNSIRGACHLSGLDNALIIDVGGTTTDIGVLVNGFPRESAIAVEVGDVRTNFRMPDIISIGIGGGTCVRQSQNGTLTLGPDSVGYRLLEQSVSFGGETLTLNDIMLQLQRERWTSSLSHSLPELDKALCLEAYRQMIDKVESAIDRIKSSSAAIPAVLVGGGSILLPDVLSGVSQVMRPQNFDAANAVGVALGKVGAQIERVVKMSDNDREKIKSELQQQTICLAEETGAMPGSVEIIDYQEIPLAYLPGNAVQVKIKAAGNLA | not soluble |
| AQAFVNSKIQPGKVVVFIKPTCPFCRKTQELLSQLPFKEGLLEFVDITATSDTNEIQDYLQQLTGARTVPRVFIGKECIGGCTDLESMHKRGELLTRLQQVGAVK | soluble |
| MSLNVLHVASECNPFFKTGGLADVLGSLPKALIKQGINVSVILPKYGHLSDEWQNQLTLKKSFTVSVTWRNQYCGLEQFVDQGVTYYFIDNEYYFKRERLYGYLDEAERFTFFNHAVLSSLPFLDESPDLIHCHDWQSGLIPAYMKTGSVENPVPTVFTIHNLRYQGAFPPDVFRELLHFAPEHFAGLEMDGAINFLKGALVHSDRVTTVSPTYAQEIQTPAFGEGLHGLLHQERGKTRGILNGIDLEDFDPKTDPHVTYPYKHNQMEKRKNKQVIQRLFELPERKDIPLIAMVSRLVEEKGVPLLTQIAGELVTTENVQLAILGTGDPSLEDQLHHLASLHPHQISFKCVFAEPLARKLYAGADLFIMPSRFEPCGLSQMISLRYETVPIVRETGGLYDTIQSYNEEIGEGNGFSFTHYNAHDFLYTIKRALRFYRTEKEWENLLLNIYSSEVGWDVSAKQYTALYEEILGKRKVEAEGHHHHHH | not soluble |
| MNAPDKTGTDRRAVPAAVDLDALIRAEHRDPFSILGPHDDGKGGQYVRAYLPAALSVRLLARDDGRELAELHMSDVPGFFVGHLEQPQPYLLKINWAGGEQITEDPYSYGPLLG | not soluble |
| MGSDKIHHHHHHMKAKHTDLEKLEQLYKESGNQLVVLYGRRGCQKEELIKEFCDGKKFFYYRCRQASPEHQLEMMGEEISRQYKVSLSRQTYEEYFARIKSGDPSKLVVIIDEAQFVAKRDTSFMEAVAKLKKHKLYPGPVLIILATSSTVWATQEASEQFKGAEMKLESLNFLEVVRHFESLPVAEIVRIYGAIGGVPAYLDKWDAAKSFKENICRLVLTPSGALYGEADAVISSELRELSAYSTILAAIARGENKLNDIFHATGFSRAKISVYLKNLATFNIVEKVVSFETGGWENAKKGVYQIKDTFVNFWFKFVYPNMSNLYLLSPEEFYDTYIEKELDAYLERYFREVCTEYLLILNQMGQLPFTIKRVGTWIGKTGRIDIVAQSEDRRSIIGFCNWDKPMMTMDMCENMAMAMDQARLTSDDYYLFSATDFEPALQSYVVRDPRFKLINMNEL | not soluble |
| MKPSMEKVLLQIALDLSSNLSSDLHYQRLINSIHQVFPCDASALFILDNDHCLKPVAVKGLSQAVLGRCFPPQVHPRLEAILQSKHPVRFESNSDLPDPFDGLLLVDENINIEVHDCLGCSLYVDDTLVGVLTLDALEVGAFKKIDDITIETFAALAAATLHNKALIKTLQDSNQQQKSINQTLI | not soluble |
| MGSDKIHHHHHHMHFYTARQPILNRRQRVVAYELLFRDSYKNCFPVDVPDKVATAKLLVNSFLSMDIEDMTDGKPALINFPTSLLKEHLVHILPYKNLVIEVLETVEPNDDNFAILKQLFDSGYHLALDDFIYSPAWDRFLPLFKLIKIDIVATPLDTIAHILPKLKQKKTRLLAEKVETQADFLHAKALGFDYFQGYFFYKPEIVKGNEVELSQPFLMSIYTEVMKPSFSYRKLEAYFTQDMDLSYKLLRFVNSSYFSHVKDIISLKQAMIFLGENQLRKFVCLIVMAQLNPDKPQILIQNTMLRARLCEVIAKVMKLNKLADAAFLTGLFSTLDAILDKPMEKVLHSLPLAPEINNALLHQQGELAECLALAIAYMQGNWEFVSEFVSRNHINAGELTRRCNQVYLWLSEYQRSSSSKA | not soluble |
| MNRTDELRTARIESLVTPAELALRYPVTPGVATHVTDSRRRIEKILNGEDKRLLVIIGPCSIHDLTAAMEYATRLQSLRNQYQSRLEIVMRTYFEKPRTVVGWKGLISDPDLNGSYRVNHGLELARKLLLQVNELGVPTATEFLDMVTGQFIADLISWGAIGARTTESQIHREMASALSCPVGFKNGTDGNTRIAVDAIRAARASHMFLSPDKNGQMTIYQTSGNPYGHIIMRGGKKPNYHADDIAAACDTLHEFDLPEHLVVDFSHGNCQKQHRRQLEVCEDICQQIRNGSTAIAGIMAESFLREGTQKIVGSQPLTYGQSITDPCLGWEDTERLVEKLASAVDTRF | soluble |
| MQLEIKGKTHNVKFGTRFVAEMDKNHIAERQGFKFGAGLQSSVPFLIDHSVVTLAEVIYTGTITEPPRPSLNDIYDYIDEVEDIEKLFDDVLDELRQSNASKLFMAQVEKDLAEAKA | not soluble |
| MRQGFPYARPGQVIGLFGGSFDPPHAGHVHVTREALKMFGLDRVWWLVTPGNPLKAHGPAPLDRRMEAARAMMRHPRVDVTDIEAHLGTRVTADTIAALRRIYPRVRFVWLMGADNLAQLHRWKDWRQIIETVPVGVLARPGDRISARMSPAARAYAPYRIDGQARHLLGRAEAPAWCFVNVPMVDVSSTRIRAAGGWSAAQQGRGQTGTQDQ | not soluble |
| MAGDKGGGDGERRLRQPIVVVLGHVDHGKTTLLDKIRRTAVAAKEAGGITQHIGASIVPADVIEKIAEPLKKVIPVKLVIPGLLFIDTPGHELFSNLRRRGGSVADFAILVVDIMEGFKPQTYEALELLKERRVPFLIAANKIDRIPGWKPNPDAPFIETIRRQDPKVREILEQRVYEIVGKMYEAGLPAELFTRIKDFRRKIAIVPVSARTGEGIPELLAVLAGLTQTYLKERLRYAEGPAKGVVLEVKEMQGFGTVVDAVIYDGVLKKEDIIVVGGREGPIVTRVRALLMPAPLQDIRSREARFVQVDRVYAAAGVRIAAPGLDDVIAGSPIYAAESEEEARKLMEAVQREIEELRFRTENIGVVVKADTLGTLEALVEALRRRGVPVRLADIGPVSRSDVLDAAVTRKIDPYLGVVLAFNVKVLPEAEEEASRAGVKIFRESMIYKLIEDYEEWVKKEKEAERLKALNSLIRPGKFRILPGYVFRRSDPAIVGVEVLGGVIRPGYPVMDSQGRELGRIMAIKDRDRSLEEARLGAAVAVSIQGRILIGRHANEGDILYTNVPAQHAYKILTEFKDLVSKDELDVLREIAEIKRRAADHEYNKVLLRLKIKRVSQ | soluble |
| MGSDKIHHHHHHMKRVKEQIKYLALLAICLLSGCSDFLDSYNPSAVTDDFYNTKEGQQKLLTDINARYRNVFNTGELQYYGTDIYMAISEEPAERMFNGYDKTFNSTAPIVGDYWKVLYKIVQESNILLNRCTPDIAGSDYTSLTAQARFFRAMAYYYLVETFGPVPLLTEENTSVIQQAERTGEQAIYTFIITELNDIKDKLDMTTISAGKVTNAAVIHFLGKMYLTRAYKSFAETDDFSNAATTFDLLVENPASGYALQENYAALFDENNQANSEVIWAIQYGLDKNYRGDGNPQQAQFGFNIVALEPDLFIKNQNDYSSVSRKYWVNPKAHELYTDPEADTRYDATFKREYYINNPDNADYGKLGIYFPRWNDKSGMSNNAKRFYPFKQDDEYVWYPQSTALPVLETASDRMPMVRKFSDTKIQWGEGGSREDVIFRLGDTYLLCAEAYLGAGNKKLALERINSIRKRAAKDATAYEAMKLTDLDINVIMDERARELMGEHDRWFDLKRTQTLLTRVPAYNPFVVKYDNLNKNHLVRPIPQDERNKVDGLSQNEGY | not soluble |
| MATFFLLSAGKAQDRIPACPPLGKTLKMIKPLREMNWANDTIAVQTSFPSAFRETGRDEIIDSIALLTPVFERLRQVRAGLSEDTVRILHIGDSHVRGHIYPQTTGTLLKETFGAVSYTDMGVNGATCLTFTHPGRIADIAAMKPELLILSFGTNESHNRRYNVNLHYNQMDELVKLLRDSLPDVPILLTTPPGSYESFRQRRRKRTYAINPRTVTAAETIRRYAKDHRLLVWDMYDVVGGKRRACTNWTEAKLMRPDHVHYLPEGYILQGNLLYQAIIQAYNDYVSH | not soluble |
| MKAVKATLMYDGLGNIEKNVYIIFDKDIVNITREKPKDVEVVAEGVVTPAFIDAHSHIGMDRYGEPYQESELNEQMDSVLPLADALYSIYMDDKAFKHSIEFGVLYSSILPGSGNIIGGKGVLIRNYGRDIEDAFIKYVGVKAAFGYNPRSTTNWKGLRPSTRMGAIGILFNWLIKTKKTISLLEKGKKDPEEIDPVIEALIPVLKGEMPLRVHAHKEDDIAVLLMIKRKFNLKVTVEHAADVHSKETFEKIKREGVPLVYGPLDAHPYKVELKHEDWKNAKYLLEVKPFFGLMSDHPFSIQANLYLQLRHFIRLGMSKAEAIKLITYNNAKILGIEDKLGSLEKGKWASLVVWNGDPFNLENYPTHVFAEGELIHEANL | soluble |
| MGSDKIHHHHHHMSETEDSIVGIKDKELKMIRKILNRYEMKLVDIKKIRSIYKIKTENSTVCLKKVSHEFKKVENGNYLVRELKKNNFNNIADYISTKDGKLIVFYKNLAFYLTEWVDGEECNLNDINEAINASKLLAKFHLATQNINFHKIKLKNNNSKNWVEIFAKCLRDMESFKSIIQNKRIKNKFDFMYEDLIESYYNRGLFSIKILNESSYFKIIKGSNNKKTVCHNSFYYQNIIKGKKDYYIIHLNSIIIDLPITDLCKMIRTLMTKKEYMWNFEKAKQIIQAYNSVNKLSKDEMEVMLALIAFPHKFWKLGKKRYVRHKNWSENKYINKLNKIVLNNKCEQSFIEEYISYLDDIKEFTNFN | not soluble |
